Test results from article PMC3582507, “A Safeguard Mechanism Regulates Rho GTPases to Coordinate Cytokinesis with the Establishment of Cell Polarity” (PLoS Biology, 2013).

T1: 6His-Gps1-1-290 (S. cerevisiae, UniProt Q99299 1-290)
T1 construct: Gps1, budding yeast, ORF YPL158C, amino acids 1-290; also called 6His-GPS1 (amino acids 1-290); source: E. coli BL21 (DE3), purified (Ni-NTA agarose)
T1 sequence (looked up): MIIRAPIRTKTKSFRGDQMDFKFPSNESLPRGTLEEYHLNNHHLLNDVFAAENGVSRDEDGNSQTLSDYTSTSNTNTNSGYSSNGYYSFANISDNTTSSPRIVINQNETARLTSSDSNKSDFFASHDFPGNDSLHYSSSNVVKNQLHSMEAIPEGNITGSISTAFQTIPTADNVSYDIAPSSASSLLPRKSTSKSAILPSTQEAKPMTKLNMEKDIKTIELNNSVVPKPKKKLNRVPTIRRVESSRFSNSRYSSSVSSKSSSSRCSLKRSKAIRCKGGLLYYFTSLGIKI

B1: GST-Cdc42 (natural protein)
chain: not shown
notes: Cdc42, Rho GTPase of budding yeast; source: E. coli BL21 (DE3), purified
B2: GST-Cdc42-Q61L (natural protein)
chain: not shown
notes: Cdc42, Rho GTPase of budding yeast, nucleotide-locked mutant Q61L; source: E. coli BL21 (DE3), purified
B3: GST-Cdc42-D57Y (natural protein)
chain: not shown
notes: Cdc42, Rho GTPase of budding yeast, nucleotide-locked mutant D57Y; source: E. coli BL21 (DE3), purified
B4: GST-Rho1 (natural protein, S. cerevisiae, UniProt P06780 1-209, looked up)
chain: MSQQVGNSIRRKLVIVGDGACGKTCLLIVFSKGQFPEVYVPTVFENYVADVEVDGRRVELALWDTAGQEDYDRLRPLSYPDSNVVLICFSIDLPDSLENVQEKWIAEVLHFCQGVPIILVGCKVDLRNDPQTIEQLRQEGQQPVTSQEGQSVADQIGATGYYECSAKTGYGVREVFEAATRASLMGKSKTNGKAKKNTTEKKKKKCVLL
notes: Rho1, Rho GTPase of budding yeast; source: E. coli BL21 (DE3), purified
B5: GST-Rho1-G19V (natural protein, S. cerevisiae, UniProt P06780 1-209, looked up)
chain: MSQQVGNSIRRKLVIVGDVACGKTCLLIVFSKGQFPEVYVPTVFENYVADVEVDGRRVELALWDTAGQEDYDRLRPLSYPDSNVVLICFSIDLPDSLENVQEKWIAEVLHFCQGVPIILVGCKVDLRNDPQTIEQLRQEGQQPVTSQEGQSVADQIGATGYYECSAKTGYGVREVFEAATRASLMGKSKTNGKAKKNTTEKKKKKCVLL
notes: Rho1, Rho GTPase of budding yeast, nucleotide-locked mutant G19V; source: E. coli BL21 (DE3), purified
B6: GST-Rho1-G22A (natural protein, S. cerevisiae, UniProt P06780 1-209, looked up)
chain: MSQQVGNSIRRKLVIVGDGACAKTCLLIVFSKGQFPEVYVPTVFENYVADVEVDGRRVELALWDTAGQEDYDRLRPLSYPDSNVVLICFSIDLPDSLENVQEKWIAEVLHFCQGVPIILVGCKVDLRNDPQTIEQLRQEGQQPVTSQEGQSVADQIGATGYYECSAKTGYGVREVFEAATRASLMGKSKTNGKAKKNTTEKKKKKCVLL
notes: Rho1, Rho GTPase of budding yeast, nucleotide-locked mutant G22A; source: E. coli BL21 (DE3), purified

Biological target: T1, 6His-Gps1-1-290
Experiment: pull-down; 6His-Gps1-1-290 bound to Ni-NTA agarose beads, incubated with GST or GST fusion proteins 1 h at 4°C in 50 mM Tris-HCl pH 7.4, 10% glycerol, 100 mM NaCl, 1 mM EDTA, 1 mM DTT, 0.5% NP-40; SDS-PAGE and Western blotting
Conditions: both partners purified

Binding result, binds:
B1, B2, B3, B4, B5, B6
